Source: patent US20260167721A1 (ABLEXIS, published 2026)

Columns and labels:
[1] = target: T1, human CD3 (TCR/CD3 complex on the cell surface) (human, UniProt P07766 23-207; P04234 22-171; P09693 23-182); test: flow cytometry, Jurkat WT cells, 10 ug/mL
T1 construct: whole, on cells; Native CD3 on human Pan-T cells or Jurkat wild-type cells; also called CD3 on Pan-T cells; CD3 on Jurkat WT cells

[2] = target: T1, human CD3 (TCR/CD3 complex on the cell …); test: flow cytometry, Jurkat WT gMFI over Jurkat KO gMFI, 10 ug/mL
[3] = target: T1, human CD3 (TCR/CD3 complex on the cell …); test: flow cytometry, Jurkat WT cells, 1 ug/mL
[4] = target: T1, human CD3 (TCR/CD3 complex on the cell …); test: flow cytometry, Jurkat WT gMFI over Jurkat KO gMFI, 1 ug/mL
[5] = target: T1, human CD3 (TCR/CD3 complex on the cell …); test: flow cytometry, Pan-T cells, 1 ug/mL
[6] = target: T1, human CD3 (TCR/CD3 complex on the cell …); test: flow cytometry, Pan-T cells, 10 ug/mL

T1 sequence (P07766 23-207, chain 1 of 3): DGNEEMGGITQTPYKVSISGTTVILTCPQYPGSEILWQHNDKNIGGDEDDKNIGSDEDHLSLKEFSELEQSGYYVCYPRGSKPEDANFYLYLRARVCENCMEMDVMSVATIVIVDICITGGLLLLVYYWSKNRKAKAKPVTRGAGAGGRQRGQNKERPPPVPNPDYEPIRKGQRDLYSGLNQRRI
T1 sequence (P04234 22-171, chain 2 of 3): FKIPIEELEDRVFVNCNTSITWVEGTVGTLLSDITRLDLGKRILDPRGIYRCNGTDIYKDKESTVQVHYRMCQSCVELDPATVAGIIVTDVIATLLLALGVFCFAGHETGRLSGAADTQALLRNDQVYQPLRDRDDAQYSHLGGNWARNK
T1 sequence (P09693 23-182, chain 3 of 3): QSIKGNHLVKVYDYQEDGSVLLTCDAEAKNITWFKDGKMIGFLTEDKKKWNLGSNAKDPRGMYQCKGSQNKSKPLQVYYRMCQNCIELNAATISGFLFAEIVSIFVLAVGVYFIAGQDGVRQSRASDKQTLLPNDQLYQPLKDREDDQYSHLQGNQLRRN

Binder | gMFI [1] [gMFI] | Jurkat WT/KO (Fold) [2] [fold] | gMFI [3] [gMFI] | Jurkat WT/KO (Fold) [4] [fold] | % Positive [5] [%] | gMFI [5] [gMFI] | % Positive [6] [%] | gMFI [6] [gMFI]
CD3 × CD33-BspAb95 (bispecific antibody) chain 1: NFMLTQPHSVSESPGKTVTISCTRSSGSIASNYVQWYQQRPGSSPTTVIYEDNQRSSGVPDRFSGSIDSSSNSASLTISGLKTEDEADYYCQSYDRSNRVFGCGTKLTVLGGGGSGGGGSGGGGSGGGGSEVQLVESGGGLVKPGGSLRLSCSASGFTFSTYTMNWVRQAPGKCLEWVSSISKSSSYIYYTDSVKGRFTISRDNAKNSLYLQMNSLRAEDTAVYYCARERRTLAFDIWGQGTMVTVSSDKTHTCPPCPAPEFEGGPSVFLFPPKPKDTLMISRTPEVTCVVVDVSHEDPEVKFNWYVDGVEVHNAKTKPREEQYNSTYRVVSVLTVLHQDWLNGKEYKCKVSNKALPASIEKTISKAKGQPREPQVYTLPPCREEMTKNQVSLWCLVKGFYPSDIAVEWESNGQPENNYKTTPPVLDSDGSFFLYSKLTVDKSRWQQGNVFSCSVMHEALHNHYTQKSLSLSPGK chain 2: EVQLVQSGAEVKKPGSSVKVSCKASGYTITDSNIHWVRQAPGQSLEWIGYIYPYNGGTDYNQKFKNRATLTVDNPTNTAYMELSSLRSEDTAFYYCVNGNPWLAYWGQGTLVTVSSASTKGPSVFPLAPSSKSTSGGTAALGCLVKDYFPEPVTVSWNSGALTSGVHTFPAVLQSSGLYSLSSVVTVPSSSLGTQTYICNVNHKPSNTKVDKRVEPKSCDKTHTCPPCPAPEFEGGPSVFLFPPKPKDTLMISRTPEVTCVVVDVSHEDPEVKFNWYVDGVEVHNAKTKPREEQYNSTYRVVSVLTVLHQDWLNGKEYKCKVSNKALPASIEKTISKAKGQPREPQVCTLPPSREEMTKNQVSLSCAVKGFYPSDIAVEWESNGQPENNYKTTPPVLDSDGSFFLVSKLTVDKSRWQQGNVFSCSVMHEALHNRFTQKSLSLSPGK chain 3: DIQLTQSPSTLSASVGDRVTITCRASESLDNYGIRFLTWFQQKPGKAPKLLMYAASNQGSGVPSRFSGSGSGTEFTLTISSLQPDDFATYYCQQTKEVPWSFGQGTKVEVKRTVAAPSVFIFPPSDEQLKSGTASVVCLLNNFYPREAKVQWKVDNALQSGNSQESVTEQDSKDSTYSLSSTLTLSKADYEKHKVYACEVTHQGLSSPVTKSFNRGEC | 39500 | 12.5 | 33900 | 10.5 | 99.7 | 112000 | 99.8 | 232000
CD3 × CD33-BspAb97 (bispecific antibody) chain 1: SYELTQPPSVSVSPGQTARITCSGDALPKKYAYWYQQKSGQAPVLVIYEDSKRPSGIPERFSGSSSGTMATLTISGAQVEDEADYYCYSTDSSGNHWVFGCGTKLTVLGGGGSGGGGSGGGGSGGGGSEVQLVESGGGLVKPGGSLRLSCAASGFTFSNYYMNWVRQAPGKCLERVSSISSSSNYIYYADSVKGRFTISRDNAKNSLYLQMNSLRAEDTAVYYCARDRRELPLDYWGQGTVVTVSSDKTHTCPPCPAPEFEGGPSVFLFPPKPKDTLMISRTPEVTCVVVDVSHEDPEVKFNWYVDGVEVHNAKTKPREEQYNSTYRVVSVLTVLHQDWLNGKEYKCKVSNKALPASIEKTISKAKGQPREPQVYTLPPCREEMTKNQVSLWCLVKGFYPSDIAVEWESNGQPENNYKTTPPVLDSDGSFFLYSKLTVDKSRWQQGNVFSCSVMHEALHNHYTQKSLSLSPGK chain 2: EVQLVQSGAEVKKPGSSVKVSCKASGYTITDSNIHWVRQAPGQSLEWIGYIYPYNGGTDYNQKFKNRATLTVDNPTNTAYMELSSLRSEDTAFYYCVNGNPWLAYWGQGTLVTVSSASTKGPSVFPLAPSSKSTSGGTAALGCLVKDYFPEPVTVSWNSGALTSGVHTFPAVLQSSGLYSLSSVVTVPSSSLGTQTYICNVNHKPSNTKVDKRVEPKSCDKTHTCPPCPAPEFEGGPSVFLFPPKPKDTLMISRTPEVTCVVVDVSHEDPEVKFNWYVDGVEVHNAKTKPREEQYNSTYRVVSVLTVLHQDWLNGKEYKCKVSNKALPASIEKTISKAKGQPREPQVCTLPPSREEMTKNQVSLSCAVKGFYPSDIAVEWESNGQPENNYKTTPPVLDSDGSFFLVSKLTVDKSRWQQGNVFSCSVMHEALHNRFTQKSLSLSPGK chain 3: DIQLTQSPSTLSASVGDRVTITCRASESLDNYGIRFLTWFQQKPGKAPKLLMYAASNQGSGVPSRFSGSGSGTEFTLTISSLQPDDFATYYCQQTKEVPWSFGQGTKVEVKRTVAAPSVFIFPPSDEQLKSGTASVVCLLNNFYPREAKVQWKVDNALQSGNSQESVTEQDSKDSTYSLSSTLTLSKADYEKHKVYACEVTHQGLSSPVTKSFNRGEC | 8450 | 3.7 | 3890 | 1.7 | 66.3 | 9270 | 98.5 | 53000
CD3 × CD33-BspAb96 (bispecific antibody) chain 1: SYELTQPPSVSVSPGQTARITCSGDALPKKYAYWYQQKSGQAPVLVIYEDSKRPSGIPERFSGSSSGTMATLTISGAQVEDEADYYCYSTDSSGNHSWVFGCGTKLTVLGGGGSGGGGSGGGGSGGGGSEVQLVESGGGLVKPGGSLRLSCAASGFTFSSYSMNWVRQAPGKCLEWVSSVNSRGSYIYYADSVKGRFTISRDNAKDSLYLQMNSLRADDTAVYYCARDRRELLLDYWGQGTLVTVSSDKTHTCPPCPAPEFEGGPSVFLFPPKPKDTLMISRTPEVTCVVVDVSHEDPEVKFNWYVDGVEVHNAKTKPREEQYNSTYRVVSVLTVLHQDWLNGKEYKCKVSNKALPASIEKTISKAKGQPREPQVYTLPPCREEMTKNQVSLWCLVKGFYPSDIAVEWESNGQPENNYKTTPPVLDSDGSFFLYSKLTVDKSRWQQGNVFSCSVMHEALHNHYTQKSLSLSPGK chain 2: EVQLVQSGAEVKKPGSSVKVSCKASGYTITDSNIHWVRQAPGQSLEWIGYIYPYNGGTDYNQKFKNRATLTVDNPTNTAYMELSSLRSEDTAFYYCVNGNPWLAYWGQGTLVTVSSASTKGPSVFPLAPSSKSTSGGTAALGCLVKDYFPEPVTVSWNSGALTSGVHTFPAVLQSSGLYSLSSVVTVPSSSLGTQTYICNVNHKPSNTKVDKRVEPKSCDKTHTCPPCPAPEFEGGPSVFLFPPKPKDTLMISRTPEVTCVVVDVSHEDPEVKFNWYVDGVEVHNAKTKPREEQYNSTYRVVSVLTVLHQDWLNGKEYKCKVSNKALPASIEKTISKAKGQPREPQVCTLPPSREEMTKNQVSLSCAVKGFYPSDIAVEWESNGQPENNYKTTPPVLDSDGSFFLVSKLTVDKSRWQQGNVFSCSVMHEALHNRFTQKSLSLSPGK chain 3: DIQLTQSPSTLSASVGDRVTITCRASESLDNYGIRFLTWFQQKPGKAPKLLMYAASNQGSGVPSRFSGSGSGTEFTLTISSLQPDDFATYYCQQTKEVPWSFGQGTKVEVKRTVAAPSVFIFPPSDEQLKSGTASVVCLLNNFYPREAKVQWKVDNALQSGNSQESVTEQDSKDSTYSLSSTLTLSKADYEKHKVYACEVTHQGLSSPVTKSFNRGEC | 7470 | 3.5 | 2370 | 1.1 | 8.2 | 3700 | 95.8 | 17900
CD3 × CD33-BspAb98 (bispecific antibody, KiH heterodimer) scFv-Fc: NFMLTQPHSVSESPGKTVTISCTRSSGSIASNYVQWYQQRPGSSPTTVIYEDNQRPSGVPDRFSGSIDSSSNSASLTISGLKTEDEADYYCQSYDSSNRVFGCGTKLTVLGGGGSGGGGSGGGGSGGGGSEVHLVESGGGLVKPGGSLRLSCAASGFTFSRYSMNWVRQAPGKCLEWVSSISRSSSYIYYADSVKGRFTISRDNAKNSLYLQMNSLRAEDTAVYYCAREPRTLGMDYWGQGILVTVSSGGGGSDKTHTCPPCPAPEFEGGPSVFLFPPKPKDTLMISRTPEVTCVVVDVSHEDPEVKFNWYVDGVEVHNAKTKPREEQYNSTYRVVSVLTVLHQDWLNGKEYKCKVSNKALPASIEKTISKAKGQPREPQVYTLPPCREEMTKNQVSLWCLVKGFYPSDIAVEWESNGQPENNYKTTPPVLDSDGSFFLYSKLTVDKSRWQQGNVFSCSVMHEALHNHYTQKSLSLSPGK heavy: EVQLVQSGAEVKKPGSSVKVSCKASGYTITDSNIHWVRQAPGQSLEWIGYIYPYNGGTDYNQKFKNRATLTVDNPTNTAYMELSSLRSEDTAFYYCVNGNPWLAYWGQGTLVTVSSASTKGPSVFPLAPSSKSTSGGTAALGCLVKDYFPEPVTVSWNSGALTSGVHTFPAVLQSSGLYSLSSVVTVPSSSLGTQTYICNVNHKPSNTKVDKRVEPKSCDKTHTCPPCPAPEFEGGPSVFLFPPKPKDTLMISRTPEVTCVVVDVSHEDPEVKFNWYVDGVEVHNAKTKPREEQYNSTYRVVSVLTVLHQDWLNGKEYKCKVSNKALPASIEKTISKAKGQPREPQVCTLPPSREEMTKNQVSLSCAVKGFYPSDIAVEWESNGQPENNYKTTPPVLDSDGSFFLVSKLTVDKSRWQQGNVFSCSVMHEALHNRFTQKSLSLSPGK light: DIQLTQSPSTLSASVGDRVTITCRASESLDNYGIRFLTWFQQKPGKAPKLLMYAASNQGSGVPSRFSGSGSGTEFTLTISSLQPDDFATYYCQQTKEVPWSFGQGTKVEVKRTVAAPSVFIFPPSDEQLKSGTASVVCLLNNFYPREAKVQWKVDNALQSGNSQESVTEQDSKDSTYSLSSTLTLSKADYEKHKVYACEVTHQGLSSPVTKSFNRGEC | 47700 | 12.7 | 43500 | 11.2 | 99.8 | 197000 | 99.6 | 278000
